Ends that are not written are not given here. * marks the point of attachment. Biotin = O=C1N[C@H]2[C@H](CS[C@H]2CCCCC(=O)*)N1
Target: T1, GST-TAX2 PDZ domain fusion protein (human tax interaction protein 2 AA54-140; PDZ domain 1 of 1) (human, UniProt P08515 1-218 = GST)
T1 construct: also called TX 2
Experiment: A/G assays

T1 sequence (P08515 1-218, tags or fused parts left off): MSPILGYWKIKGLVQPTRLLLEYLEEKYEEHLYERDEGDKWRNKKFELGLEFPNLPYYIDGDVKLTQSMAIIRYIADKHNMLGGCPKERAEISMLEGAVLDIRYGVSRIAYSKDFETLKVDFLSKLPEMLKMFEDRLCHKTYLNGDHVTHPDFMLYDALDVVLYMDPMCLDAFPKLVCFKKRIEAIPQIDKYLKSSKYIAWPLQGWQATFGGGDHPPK

| Binder | binding result |
| --- | --- |
| Biotin-TSGTGHNQTRALRASESGI [CD97 (CD55L) C-terminal PL peptide AA14L, biotinylated] | no binding |
| Biotin-SPQPDSTDNDDYDDISAA [CD6 C-terminal PL peptide AA6L, biotinylated] | no binding |

Target: T2, GST-KIAA0316 PDZ domain fusion protein (KIAA0316 AA197-284; PDZ domain 1 of 1) (UniProt P08515 1-218 = GST)
T2 construct: also called K316
Experiment: A/G assays

T2 sequence (P08515 1-218, tags or fused parts left off): as above

| Binder | binding result |
| --- | --- |
| Biotin-TSGTGHNQTRALRASESGI [CD97 (CD55L) C-terminal PL peptide AA14L, biotinylated] | no binding |
| Biotin-SPQPDSTDNDDYDDISAA [CD6 C-terminal PL peptide AA6L, biotinylated] | no binding |

Target: T3, GST-MPP2 PDZ domain fusion protein (maguk p55 subfamily member 2 (DLG2) AA185-273; PDZ domain 1 of 1) (UniProt P08515 1-218 = GST)
T3 construct: also called MMP2
Experiment: A/G assays

T3 sequence (P08515 1-218, tags or fused parts left off): as above

| Binder | binding result |
| --- | --- |
| Biotin-TSGTGHNQTRALRASESGI [CD97 (CD55L) C-terminal PL peptide AA14L, biotinylated] | no binding |
| Biotin-SPQPDSTDNDDYDDISAA [CD6 C-terminal PL peptide AA6L, biotinylated] | no binding |

Target: T4, GST-TAX33 PDZ domain fusion protein (tax interaction protein 33 AA73-162; PDZ domain 1 of 1) (UniProt P08515 1-218 = GST)
T4 construct: also called TX33
Experiment: A/G assays

T4 sequence (P08515 1-218, tags or fused parts left off): as above

| Binder | binding result |
| --- | --- |
| Biotin-TSGTGHNQTRALRASESGI [CD97 (CD55L) C-terminal PL peptide AA14L, biotinylated] | no binding |
| Biotin-SPQPDSTDNDDYDDISAA [CD6 C-terminal PL peptide AA6L, biotinylated] | no binding |

Target: T5, GST-KIAA0559 PDZ domain fusion protein (KIAA0559 AA766-870; PDZ1 of 1) (UniProt P08515 1-218 = GST)
T5 construct: also called K559
Experiment: A/G assays

| Binder | binding result |
| --- | --- |
| Biotin-TSGTGHNQTRALRASESGI [CD97 (CD55L) C-terminal PL peptide AA14L, biotinylated] | no binding |
| Biotin-SPQPDSTDNDDYDDISAA [CD6 C-terminal PL peptide AA6L, biotinylated] | no binding |

Target: GST-LIMK2 PDZ domain fusion protein (human LIM domain kinase 2 AA185-275; PDZ domain 1 of 1) (human, UniProt P08515 1-218 = GST)
Experiment: A/G assays

GST-LIMK2 PDZ domain fusion protein (human LIM domain kinase 2 AA185-275; PDZ domain 1 of 1), sequence (P08515 1-218, tags or fused parts left off): as above

| Binder | binding result |
| --- | --- |
| Biotin-TSGTGHNQTRALRASESGI [CD97 (CD55L) C-terminal PL peptide AA14L, biotinylated] | no binding |
| Biotin-SPQPDSTDNDDYDDISAA [CD6 C-terminal PL peptide AA6L, biotinylated] | no binding |

Target: T6, GST-SYN1a PDZ domain fusion protein (alpha1-syntrophin AA96-189; PDZ domain 1 of 1) (UniProt P08515 1-218 = GST)
T6 construct: also called SYN 1 alpha; SYNTR 1 alpha
Experiment: A/G assays

T6 sequence (P08515 1-218, tags or fused parts left off): as above

| Binder | binding result |
| --- | --- |
| Biotin-TSGTGHNQTRALRASESGI [CD97 (CD55L) C-terminal PL peptide AA14L, biotinylated] | no binding |
| Biotin-SPQPDSTDNDDYDDISAA [CD6 C-terminal PL peptide AA6L, biotinylated] | no binding |

Target: T7, GST-TAX40 PDZ domain fusion protein (human tax interaction protein 40 AA35-137; PDZ domain 1 of 1) (human, UniProt P08515 1-218 = GST)
T7 construct: also called TX 40
Experiment: A/G assays

T7 sequence (P08515 1-218, tags or fused parts left off): as above

| Binder | binding result |
| --- | --- |
| Biotin-TSGTGHNQTRALRASESGI [CD97 (CD55L) C-terminal PL peptide AA14L, biotinylated] | no binding |
| Biotin-SPQPDSTDNDDYDDISAA [CD6 C-terminal PL peptide AA6L, biotinylated] | no binding |

Target: GST-LIM PDZ domain fusion protein (Human LIM protein AA29-112; PDZ domain 1 of 1) (human, UniProt P08515 1-218 = GST)
Experiment: A/G assays

GST-LIM PDZ domain fusion protein (Human LIM protein AA29-112; PDZ domain 1 of 1), sequence (P08515 1-218, tags or fused parts left off): as above

| Binder | binding result |
| --- | --- |
| Biotin-TSGTGHNQTRALRASESGI [CD97 (CD55L) C-terminal PL peptide AA14L, biotinylated] | no binding |
| Biotin-SPQPDSTDNDDYDDISAA [CD6 C-terminal PL peptide AA6L, biotinylated] | no binding |

Target: T8, GST-TAX43 PDZ domain fusion protein (human tax interaction protein 43 AA15-85; PDZ domain 1 of 1) (human, UniProt P08515 1-218 = GST)
T8 construct: also called TX 43
Experiment: A/G assays

T8 sequence (P08515 1-218, tags or fused parts left off): as above

| Binder | binding result |
| --- | --- |
| Biotin-TSGTGHNQTRALRASESGI [CD97 (CD55L) C-terminal PL peptide AA14L, biotinylated] | no binding |
| Biotin-SPQPDSTDNDDYDDISAA [CD6 C-terminal PL peptide AA6L, biotinylated] | no binding |

Target: GST-MINT3 PDZ domain fusion protein (human MINT3 AA11-52; PDZ domain 1 of 1) (human, UniProt P08515 1-218 = GST)
Experiment: A/G assays

GST-MINT3 PDZ domain fusion protein (human MINT3 AA11-52; PDZ domain 1 of 1), sequence (P08515 1-218, tags or fused parts left off): as above

| Binder | binding result |
| --- | --- |
| Biotin-TSGTGHNQTRALRASESGI [CD97 (CD55L) C-terminal PL peptide AA14L, biotinylated] | no binding |
| Biotin-SPQPDSTDNDDYDDISAA [CD6 C-terminal PL peptide AA6L, biotinylated] | no binding |

Target: GST-PTN-4 PDZ domain fusion protein (protein-tyrosine phosphatase meg1 AA774-862; PDZ domain 1 of 1) (UniProt P08515 1-218 = GST)
Experiment: A/G assays

GST-PTN-4 PDZ domain fusion protein (protein-tyrosine phosphatase meg1 AA774-862; PDZ domain 1 of 1), sequence (P08515 1-218, tags or fused parts left off): as above

| Binder | binding result |
| --- | --- |
| Biotin-TSGTGHNQTRALRASESGI [CD97 (CD55L) C-terminal PL peptide AA14L, biotinylated] | no binding |
| Biotin-SPQPDSTDNDDYDDISAA [CD6 C-terminal PL peptide AA6L, biotinylated] | no binding |

Target: T9, GST-NeDLG PDZ domain fusion protein (presynaptic protein sao102, neuroendocrine-dlg; PDZ domains 1-2 of 3) (UniProt P08515 1-218 = GST)
T9 construct: also called NeDLG1
Experiment: A/G assays

T9 sequence (P08515 1-218, tags or fused parts left off): as above

| Binder | binding result |
| --- | --- |
| Biotin-TSGTGHNQTRALRASESGI [CD97 (CD55L) C-terminal PL peptide AA14L, biotinylated] | no binding |
| Biotin-SPQPDSTDNDDYDDISAA [CD6 C-terminal PL peptide AA6L, biotinylated] | no binding |

Target: T10, GST-CBP PDZ domain fusion protein (Cytohesin binding protein HE AA85-175; PDZ domain 1 of 1) (UniProt P08515 1-218 = GST)
T10 construct: also called Prot
Experiment: A/G assays

| Binder | binding result |
| --- | --- |
| Biotin-TSGTGHNQTRALRASESGI [CD97 (CD55L) C-terminal PL peptide AA14L, biotinylated] | no binding |
| Biotin-SPQPDSTDNDDYDDISAA [CD6 C-terminal PL peptide AA6L, biotinylated] | no binding |

Target: GST-MPP1 PDZ domain fusion protein (55 Kd erythrocyte membrane protein AA101-186; PDZ domain 1 of 1) (UniProt P08515 1-218 = GST)
Experiment: A/G assays

GST-MPP1 PDZ domain fusion protein (55 Kd erythrocyte membrane protein AA101-186; PDZ domain 1 of 1), sequence (P08515 1-218, tags or fused parts left off): as above

| Binder | binding result |
| --- | --- |
| Biotin-TSGTGHNQTRALRASESGI [CD97 (CD55L) C-terminal PL peptide AA14L, biotinylated] | no binding |
| Biotin-SPQPDSTDNDDYDDISAA [CD6 C-terminal PL peptide AA6L, biotinylated] | no binding |

Target: GST-PSD95 PDZ domain fusion protein (human post-synaptic density protein 95 AA387-724; PDZ domains 1-3 of 3) (human, UniProt P08515 1-218 = GST)
Experiment: A/G assays

GST-PSD95 PDZ domain fusion protein (human post-synaptic density protein 95 AA387-724; PDZ domains 1-3 of 3), sequence (P08515 1-218, tags or fused parts left off): as above

| Binder | binding result |
| --- | --- |
| Biotin-TSGTGHNQTRALRASESGI [CD97 (CD55L) C-terminal PL peptide AA14L, biotinylated] | no binding |
| Biotin-SPQPDSTDNDDYDDISAA [CD6 C-terminal PL peptide AA6L, biotinylated] | no binding |

Target: T11, GST-KIAA0303 PDZ domain fusion protein (KIAA0303 AA652-742; PDZ domain 1 of 1) (UniProt P08515 1-218 = GST)
T11 construct: also called K303
Experiment: A/G assays

T11 sequence (P08515 1-218, tags or fused parts left off): as above

| Binder | binding result |
| --- | --- |
| Biotin-TSGTGHNQTRALRASESGI [CD97 (CD55L) C-terminal PL peptide AA14L, biotinylated] | no binding |
| Biotin-SPQPDSTDNDDYDDISAA [CD6 C-terminal PL peptide AA6L, biotinylated] | no binding |

Target: GST-AF6 PDZ domain fusion protein (af-6 protein AA985-1077; PDZ domain 1 of 1) (UniProt P08515 1-218 = GST)
Experiment: A/G assays

GST-AF6 PDZ domain fusion protein (af-6 protein AA985-1077; PDZ domain 1 of 1), sequence (P08515 1-218, tags or fused parts left off): as above

| Binder | binding result |
| --- | --- |
| Biotin-TSGTGHNQTRALRASESGI [CD97 (CD55L) C-terminal PL peptide AA14L, biotinylated] | no binding |
| Biotin-SPQPDSTDNDDYDDISAA [CD6 C-terminal PL peptide AA6L, biotinylated] | no binding |

Target: GST-DVL1 PDZ domain fusion protein (human dishevelled segment polarity protein homolog AA248-340); PDZ domain … (human, UniProt P08515 1-218 = GST)
Experiment: A/G assays

| Binder | binding result |
| --- | --- |
| Biotin-TSGTGHNQTRALRASESGI [CD97 (CD55L) C-terminal PL peptide AA14L, biotinylated] | no binding |
| Biotin-SPQPDSTDNDDYDDISAA [CD6 C-terminal PL peptide AA6L, biotinylated] | no binding |

Target: GST-TIAM1 PDZ domain fusion protein (T-lymphoma invasion and metastasis inducing protein 1 AA1001-1088); PDZ 1 … (UniProt P08515 1-218 = GST)
Experiment: A/G assays

GST-TIAM1 PDZ domain fusion protein (T-lymphoma invasion and metastasis inducing protein 1 AA1001-1088); PDZ 1 …, sequence (P08515 1-218, tags or fused parts left off): as above

| Binder | binding result |
| --- | --- |
| Biotin-TSGTGHNQTRALRASESGI [CD97 (CD55L) C-terminal PL peptide AA14L, biotinylated] | no binding |
| Biotin-SPQPDSTDNDDYDDISAA [CD6 C-terminal PL peptide AA6L, biotinylated] | no binding |

Target: T12, GST-RGS12 PDZ domain fusion protein (human regulator of G-protein signalling 12 AA35-103; PDZ domain 1 of 1) (human, UniProt P08515 1-218 = GST)
T12 construct: also called RSG12
Experiment: A/G assays

| Binder | binding result |
| --- | --- |
| Biotin-TSGTGHNQTRALRASESGI [CD97 (CD55L) C-terminal PL peptide AA14L, biotinylated] | no binding |
| Biotin-SPQPDSTDNDDYDDISAA [CD6 C-terminal PL peptide AA6L, biotinylated] | no binding |

Target: GST-prIL16 PDZ domain fusion protein (putative interleukin 16 precursor AA170-383; PDZ domains 1-2 of 2) (UniProt P08515 1-218 = GST)
Experiment: A/G assays

GST-prIL16 PDZ domain fusion protein (putative interleukin 16 precursor AA170-383; PDZ domains 1-2 of 2), sequence (P08515 1-218, tags or fused parts left off): as above

| Binder | binding result |
| --- | --- |
| Biotin-TSGTGHNQTRALRASESGI [CD97 (CD55L) C-terminal PL peptide AA14L, biotinylated] | no binding |
| Biotin-SPQPDSTDNDDYDDISAA [CD6 C-terminal PL peptide AA6L, biotinylated] | no binding |

Target: T13, GST-CASK PDZ domain fusion protein (CASK AA495-584; PDZ domain 1 of 1) (mouse, UniProt P08515 1-218 = GST)
T13 construct: also called mCASK
Experiment: A/G assays

T13 sequence (P08515 1-218, tags or fused parts left off): as above

| Binder | binding result |
| --- | --- |
| Biotin-TSGTGHNQTRALRASESGI [CD97 (CD55L) C-terminal PL peptide AA14L, biotinylated] | no binding |
| Biotin-SPQPDSTDNDDYDDISAA [CD6 C-terminal PL peptide AA6L, biotinylated] | no binding |

Target: GST-NOS1 PDZ domain fusion protein (human neuronal nitric oxide synthase; PDZ domain 1 of 1) (human, UniProt P08515 1-218 = GST)
Experiment: A/G assays

GST-NOS1 PDZ domain fusion protein (human neuronal nitric oxide synthase; PDZ domain 1 of 1), sequence (P08515 1-218, tags or fused parts left off): as above

| Binder | binding result |
| --- | --- |
| Biotin-TSGTGHNQTRALRASESGI [CD97 (CD55L) C-terminal PL peptide AA14L, biotinylated] | no binding |
| Biotin-SPQPDSTDNDDYDDISAA [CD6 C-terminal PL peptide AA6L, biotinylated] | no binding |

Target: T14, GST-41.8 kD PDZ domain fusion protein (hypothetical 41.8 kD protein AA4-85; PDZ domain 1 of 1) (UniProt P08515 1-218 = GST)
T14 construct: also called hypoth
Experiment: A assay

T14 sequence (P08515 1-218, tags or fused parts left off): as above

| Binder | binding result |
| --- | --- |
| Biotin-TSGTGHNQTRALRASESGI [CD97 (CD55L) C-terminal PL peptide AA14L, biotinylated] | binds |
| Biotin-SPQPDSTDNDDYDDISAA [CD6 C-terminal PL peptide AA6L, biotinylated] | binds |

Reference: patent US20090149339A1 (published 2009)
